Here are results for three molecules from paper PMC4176352, “Essential role of eIF5-mimic protein in animal development is linked to control of ATF4 expression” (Nucleic Acids Research, 2014).

To fix the notation:
B1: polyhistidine-tagged full-length human 5MP1 (natural protein, UniProt Q9Y6E2 1-419, looked up)
chain: MNKHQKPVLTGQRFKTRKRDEKEKFEPTVFRDTLVQGLNEAGDDLEAVAKFLDSTGSRLDYRRYADTLFDILVAGSMLAPGGTRIDDGDKTKMTNHCVFSANEDHETIRNYAQVFNKLIRRYKYLEKAFEDEMKKLLLFLKAFSETEQTKLAMLSGILLGNGTLPATILTSLFTDSLVKEGIAASFAVKLFKAWMAEKDANSVTSSLRKANLDKRLLELFPVNRQSVDHFAKYFTDAGLKELSDFLRVQQSLGTRKELQKELQERLSQECPIKEVVLYVKEEMKRNDLPETAVIGLLWTCIMNAVEWNKKEELVAEQALKHLKQYAPLLAVFSSQGQSELILLQKVQEYCYDNIHFMKAFQKIVVLFYKADVLSEEAILKWYKEAHVAKGKSVFLDQMKKFVEWLQNAEEESESEGEEN
notes: human eIF5-mimic protein 1 (5MP1, BZW2), full length; Preparation of the construct is described in the Supplementary file; also called BZW2; eIF5-mimic protein 1
B2: polyhistidine-tagged human 5MP1 C-terminal domain (aa. 245–419) (domain or fragment, UniProt Q9Y6E2 245-419, looked up)
chain: FLRVQQSLGTRKELQKELQERLSQECPIKEVVLYVKEEMKRNDLPETAVIGLLWTCIMNAVEWNKKEELVAEQALKHLKQYAPLLAVFSSQGQSELILLQKVQEYCYDNIHFMKAFQKIVVLFYKADVLSEEAILKWYKEAHVAKGKSVFLDQMKKFVEWLQNAEEESESEGEEN
notes: human eIF5-mimic protein 1 (5MP1, BZW2), CTD, aa; 245-419; Preparation of the construct is described in the Supplementary file; also called 5MP1-CTD; CTD
B3: human eIF2β 53–136 (domain or fragment, UniProt P20042 53-136, looked up)
chain: DLEADEEDTRKKDASDDLDDLNFFNQKKKKKKTKKIFDIDEAEEGVKDLKIESDVQEPTEPEDDLDIMLGNKKKKKKNVKFPDE
notes: human eIF2 beta subunit, residues 53-136, carrying two K-boxes; also called eIF2β_(53–135)

Common to all, as to assay: ITC; a solution of eIF2β 53–136 injected with human 5MP1 constructs; performed as described previously (16)
Holding throughout (conditions): both partners purified

The target of the experiment “human eIF2β 53–136” is B3.
For experiment [1], the target named is B2.
Experiment [2] addresses B1.

Consider B1, for which the stoichiometry N (in general, the number of molecules, sites or subunits per partner or assembly) with human eIF2β 53–136 amounted to 1. As to B2, in the experiment with human eIF2β 53–136, the “stoichiometry N” value amounted to 0.5. For B3, the Kd (usually the constant that tells how readily two partners part at equilibrium) in experiment [1] is ~5 µM; in experiment [2], ~2 µM.
